Values of other authors in PMC8308721, “An Effective and Safe Enkephalin Analog for Antinociception” (Pharmaceutics, 2021).

Target: [3H]DADLE ([D-Ala2, D-Leu5]-enkephalin)
Assay: radioligand

Delta opioid receptor (from UniProt P41143)
Kd: 0.6 nM
